# B1: mRNA-splicing (parent)
# chain: AGUUGCUGCUGGGAGCUCCAGCACAGUGAAAUGGACAGAAGGGCAGAGCAA
# Variants of: B1
# Assay: exon inclusion enrichment index; higher = more inclusion; WT1 exon 5 minigene, HEK293
row,Variant,exon inclusion enrichment index
1,AGUUAGGACCGGGAGCUCCAGCACAGUGAAAUGGACAGAAGGGCAGAGCAA [G5A C6G U7G G8A U10C],0.159
2,AGUUAGGGAUGGGAGCUCCAGCACAGUGAAAGAGACAGAAGGGCAGAGCAA [G5A C6G U7G C9A U32G G33A],0.00113
3,AGUUAGGGAUGGGAGCUCCAGCACAGUGAAAGUGACAGAAGGGCAGAGCAA [G5A C6G U7G C9A U32G G33U],0.000945
4,AGUUAGGGAUGGGAGCUCCAGCACAGUGAAAGCGACAGAAGGGCAGAGCAA [G5A C6G U7G C9A U32G G33C],0.00522
5,AGUUAGGGAUGGGAGCUCCAGCACAGUGAAAUGGACAGAAGGGCAAGGCAA [G5A C6G U7G C9A G46A A47G],0.00174
6,AGUUAGGGAUGGGAGCUCCAGCACAGUGAAAUGGACAGAAGGGCAAUGCAA [G5A C6G U7G C9A G46A A47U],0.00359
7,AGUUAGGGAUGGGAGCUCCAGCACAGUGAAAUGGACAGAAGGGCAACGCAA [G5A C6G U7G C9A G46A A47C],0.00647
8,AGUUAGGACUGGGAGCUCCAGCACAGUGAAAUGGACAGAAGGGCAGAGCAA [G5A C6G U7G G8A],0.0142
9,AGUUAGGCCUGGGAGCUCCAGCACAGUGAAAUGGACAGAAGGGCAGAGCAA [G5A C6G U7G G8C],0.00742
10,AGUUAGGUCUGGGAGCUCCAGCACAGUGAAAUGGACAGAAGGGCAGAGCAA [G5A C6G U7G G8U],0.00501
11,AGUUAUUGAUGGGAGCUCCAGCACAGUGAAAUGGACAGAAGGGCAGAGCAA [G5A C6U C9A],0.306
12,AGUUAGGGGAGGGAGCUCCAGCACAGUGAAAUGGACAGAAGGGCAGAGCAA [G5A C6G U7G C9G U10A],0.00648
13,AGUUAGGGGGGGGAGCUCCAGCACAGUGAAAUGGACAGAAGGGCAGAGCAA [G5A C6G U7G C9G U10G],0.0568
14,AGUUAGGGGCGGGAGCUCCAGCACAGUGAAAUGGACAGAAGGGCAGAGCAA [G5A C6G U7G C9G U10C],0.00245
15,AGUUAUUACCGGGAGCUCCAGCACAGUGAAAUGGACAGAAGGGCAGAGCAA [G5A C6U G8A U10C],0.819
16,AGUUAGGGAUGGGAGCGCCAGCACAGUGAAAUGGACAGAAGGGCAGAGCAA [G5A C6G U7G C9A U17G],0.00284
17,AGUUAGGGAUGGGAGCCCCAGCACAGUGAAAUGGACAGAAGGGCAGAGCAA [G5A C6G U7G C9A U17C],0.00172
18,AGUUAGGGAUGGGAGCACCAGCACAGUGAAAUGGACAGAAGGGCAGAGCAA [G5A C6G U7G C9A U17A],0.00695
19,AGUUAGGGAUGGGAGCUCCAGCACAGAAAAAUGGACAGAAGGGCAGAGCAA [G5A C6G U7G C9A U27A G28A],0.00156
20,AGUUAGGGAUGGGAGCUCCAGCACAGAUAAAUGGACAGAAGGGCAGAGCAA [G5A C6G U7G C9A U27A G28U],0.00161
21,AGUUAGGGAUGGGAGCUCCAGCACAGACAAAUGGACAGAAGGGCAGAGCAA [G5A C6G U7G C9A U27A G28C],0.0045
22,AGUUAGGCAUGGGAGCUCCAGCACAGUGAAAUGGACAGAAGGGCAGAGCAA [G5A C6G U7G G8C C9A],0.0086
23,AGUUAGGCUUGGGAGCUCCAGCACAGUGAAAUGGACAGAAGGGCAGAGCAA [G5A C6G U7G G8C C9U],0.00108
24,AGUUAGGCGUGGGAGCUCCAGCACAGUGAAAUGGACAGAAGGGCAGAGCAA [G5A C6G U7G G8C C9G],0.0513
25,AGUUAGGGCCGGGAGCUCCAGCACAGUGAAAUGGACAGAAGGGCAGAGCAA [G5A C6G U7G U10C],0.0118
26,AGUUAGGGCAGGGAGCUCCAGCACAGUGAAAUGGACAGAAGGGCAGAGCAA [G5A C6G U7G U10A],0.00101

row,Variant,exon inclusion enrichment index
1,AGUUAGGGCGGGGAGCUCCAGCACAGUGAAAUGGACAGAAGGGCAGAGCAA [G5A C6G U7G U10G],0.0189
2,AGUUAUUCAUGGGAGCUCCAGCACAGUGAAAUGGACAGAAGGGCAGAGCAA [G5A C6U G8C C9A],0.357
3,AGUUAGGGACUGGAGCUCCAGCACAGUGAAAUGGACAGAAGGGCAGAGCAA [G5A C6G U7G C9A U10C G11U],0.0108
4,AGUUAGGGACCGGAGCUCCAGCACAGUGAAAUGGACAGAAGGGCAGAGCAA [G5A C6G U7G C9A U10C G11C],0.0142
5,AGUUAGGGACAGGAGCUCCAGCACAGUGAAAUGGACAGAAGGGCAGAGCAA [G5A C6G U7G C9A U10C G11A],0.0011
6,AGUUAGGGAUGGGAGCUCCAGCACAGUGAAAUGGACAGAAGGGCAGACCAA [G5A C6G U7G C9A G48C],0.00243
7,AGUUAGGGAUGGGAGCUCCAGCACAGUGAAAUGGACAGAAGGGCAGAACAA [G5A C6G U7G C9A G48A],0.000556
8,AGUUAGGGAUGGGAGCUCCAGCACAGUGAAAUGGACAGAAGGGCAGAUCAA [G5A C6G U7G C9A G48U],0.00708
9,AGUUAGGGAUGGGAGCUCCAGCACAGUGAAAAGGACAGAAGGGCAGAGCAA [G5A C6G U7G C9A U32A],0.000886
10,AGUUAGGGAUGGGAGCUCCAGCACAGUGAAAGGGACAGAAGGGCAGAGCAA [G5A C6G U7G C9A U32G],0.00176
11,AGUUAGGGAUGGGAGCUCCAGCACAGUGAAACGGACAGAAGGGCAGAGCAA [G5A C6G U7G C9A U32C],0.00508
12,AGUUAGGGAUGGGAGCUCCAGCACAGUGAAAUGGACAGAAGGGCAUAGCAA [G5A C6G U7G C9A G46U],0.000617
13,AGUUAGGGAUGGGAGCUCCAGCACAGUGAAAUGGACAGAAGGGCACAGCAA [G5A C6G U7G C9A G46C],0.00111
14,AGUUAGGGAUGGGAGCUCCAGCACAGUGAAAUGGACAGAAGGGCAAAGCAA [G5A C6G U7G C9A G46A],0.00583
15,AGUUAGGGAUGGGAGCUCCAGCACAGUGAAAUGGACAGAAGGUGAGAGCAA [G5A C6G U7G C9A G43U C44G],0.000892
16,AGUUAGGGAUGGGAGCUCCAGCACAGUGAAAUGGACAGAAGGUAAGAGCAA [G5A C6G U7G C9A G43U C44A],0.00143
17,AGUUAGGGAUGGGAGCUCCAGCACAGUGAAAUGGACAGAAGGUUAGAGCAA [G5A C6G U7G C9A G43U C44U],0.00214
18,AGUUAUUAAUGGGAGCUCCAGCACAGUGAAAUGGACAGAAGGGCAGAGCAA [G5A C6U G8A C9A],0.0634
19,AGUUAGGGAUGGGAGCUCCAGCACAGUGAAAUGGACAGAAGGGCAUUGCAA [G5A C6G U7G C9A G46U A47U],0.00177
20,AGUUAGGGAUGGGAGCUCCAGCACAGUGAAAUGGACAGAAGGGCAUCGCAA [G5A C6G U7G C9A G46U A47C],0.0165
21,AGUUAGGGAUGGGAGCUCCAGCACAGUGAAAUGGACAGAAGGGCAUGGCAA [G5A C6G U7G C9A G46U A47G],0.00156
22,AGUUAGGAGUGGGAGCUCCAGCACAGUGAAAUGGACAGAAGGGCAGAGCAA [G5A C6G U7G G8A C9G],0.0105
23,AGUUAGGAUUGGGAGCUCCAGCACAGUGAAAUGGACAGAAGGGCAGAGCAA [G5A C6G U7G G8A C9U],0.0075
24,AGUUAGGAAUGGGAGCUCCAGCACAGUGAAAUGGACAGAAGGGCAGAGCAA [G5A C6G U7G G8A C9A],0.00786
25,AGUUAGGGAUGGGAGCUCCAGCACAGUGAAAACGACAGAAGGGCAGAGCAA [G5A C6G U7G C9A U32A G33C],0.0011
